Reference: patent US20170137467A1 (CHROMOTEK, published 2017)

Experiments:
AAVSHWQQ = molecular target: T1, AAVSHWQQ; assay: truncated peptides of β-catenin aa 14-27 on OVA-microspheres, biotinylated BC2-Nb, streptavidin-PE
T1 construct: N-terminal truncation; also called β-catenin aa 20-27
T1 peptide: AAVSHWQQ
From the text: (§1) As negative controls, microspheres comprising Ovalbumin and the Myc-peptide ([…]) covalently coupled to OVA-microspheres were used. […] Evaluation of the PE-signals were done in a Flexmap 3D (Luminex).

MEPDRKAAVSHWQ = molecular target: T2, MEPDRKAAVSHWQ; assay: as above
T2 construct: C-terminal truncation; also called β-catenin aa 14-26
T2 peptide: MEPDRKAAVSHWQ
From the text: as §1

DRKAAVSHWQQ = molecular target: T3, DRKAAVSHWQQ; assay: as above
T3 construct: N-terminal truncation; also called β-catenin aa 17-27
T3 peptide: DRKAAVSHWQQ
From the text: as §1

EPDRKAAVSHWQQ = molecular target: T4, EPDRKAAVSHWQQ; assay: as above
T4 construct: N-terminal truncation; also called β-catenin aa 15-27
T4 peptide: EPDRKAAVSHWQQ
From the text: as §1

MEPDRKAAVSHW = molecular target: T5, MEPDRKAAVSHW; assay: as above
T5 construct: C-terminal truncation; also called β-catenin aa 14-25
T5 peptide: MEPDRKAAVSHW
From the text: as §1

[1] = molecular target: T6, BC2T Q12N library peptide (human); assay: peptide library pulldown on immobilized Nb, LC-MS of supernatant; ratio vs GFP-Nb control (1 = not captured, 0 = captured)
T6 peptide: Ac-PDRKAAVSHWQN-NH2
From the text: (§2) In total, 12 different BC2T libraries displaying all 20 proteinogenic amino acids in one single position of the peptide were used in immunoprecipitation experiments. […] The direct comparison with the GFP-Nb made it possible to determine the quantitative degree of peptide capture without the need of labeled standards. […] The more peptide was captured the more the value approximates 0. It was not possible to discriminate between isoleucine (I) and leucine (L) peptide versions since these peptides are isobaric.
(§3) To investigate the binding specificity of the BC2T and derived mutants peptide libraries for each amino acid position of the sequence […] (SEQ ID NO:4) were synthesized with acetyl and amide groups located at the N-termini or C-termini respectively (Intavis). […] Incubations were performed in 300 μl PBS/0.01% CHAPS for 1 h on a HulaMixer (Life Technologies). Subsequent to a centrifugation step 10 μl supernatant were analyzed in a LC-MS procedure. Peptides were separated using an UltiMate3000 RSLCnano System (Thermo Scientific), composed of a C18 PepMap100μ-Precolumn (300 μm×5 mm; particle size: 5 μm; pore size: 100 Å—Thermo Scientific) and a C18 analytical column (Acclaim Rapid Separation LC (RSLC) Column: 150 mm×5 mm; particle size: 2.2 μm; pore size: 100 Å—Thermo Scientific). A step gradient was applied starting at 8% and ending after 20 min at 30% eluent B (80% acetonitrile, 20% H₂O, 0.1% formic acid).

[2] = molecular target: T7, BC2T Q11F library peptide (human); assay: as above
T7 peptide: Ac-PDRKAAVSHWFQ-NH2
From the text: as §2, §3

[3] = molecular target: T8, BC2T Q11D library peptide (human); assay: as above
T8 peptide: Ac-PDRKAAVSHWDQ-NH2
From the text: as §2, §3

BC2T S8G library peptide = molecular target: T9, BC2T S8G library peptide (human); assay: as above
T9 construct: also called BC2TS8X: G
T9 peptide: Ac-PDRKAAVGHWQQ-NH2
From the text: as §2, §3

[4] = molecular target: T10, BC2T Q11M library peptide (human); assay: as above
T10 peptide: Ac-PDRKAAVSHWMQ-NH2
From the text: as §2, §3

BC2T S8E library peptide = molecular target: T11, BC2T S8E library peptide (human); assay: as above
T11 construct: also called BC2TS8X: E
T11 peptide: Ac-PDRKAAVEHWQQ-NH2
From the text: as §2, §3

[5] = molecular target: T12, BC2T Q11G library peptide (human); assay: as above
T12 peptide: Ac-PDRKAAVSHWGQ-NH2
From the text: as §2, §3

[6] = molecular target: T13, BC2T Q12M library peptide (human); assay: as above
T13 peptide: Ac-PDRKAAVSHWQM-NH2
From the text: as §2, §3

[7] = molecular target: T14, BC2T W10K library peptide (human); assay: as above
T14 construct: also called BC2TW10X: K
T14 peptide: Ac-PDRKAAVSHKQQ-NH2
From the text: as §2, §3

[8] = molecular target: T15, BC2T H9(I/L) library peptide, version 1 (N-terminal acetyl, C-terminal amide); assay: as above
T15 construct: Ile and Leu versions are isobaric; two versions resolved but not assigned; also called I/L1
From the text: as §2, §3

[9] = molecular target: T16, BC2T W10E library peptide (human); assay: as above
T16 construct: also called BC2TW10X: E
T16 peptide: Ac-PDRKAAVSHEQQ-NH2
From the text: as §2, §3

BC2T H9M library peptide = molecular target: T17, BC2T H9M library peptide (human); assay: as above
T17 peptide: Ac-PDRKAAVSMWQQ-NH2
From the text: as §2, §3

BC2T S8N library peptide = molecular target: T18, BC2T S8N library peptide (human); assay: as above
T18 construct: also called BC2TS8X: N
T18 peptide: Ac-PDRKAAVNHWQQ-NH2
From the text: as §2, §3

[10] = molecular target: T19, BC2T Q12(I/L) library peptide, version 1 (N-terminal acetyl, C-terminal amide); assay: as above
T19 construct: Ile and Leu versions are isobaric; two versions resolved but not assigned; also called I/L1
From the text: as §2, §3

B1: BC2 nanobody (VHH)
VHH: QVQLVESGGGLVQPGGSLTLSCTASGFTLDHYDIGWFRQAPGKEREGVSCINNSDDDTYYADSVKGRFTIFMDNAKDTVYLQMNSLKPEDTAIYYCAEARGCKRGRYEYDFWGQGTQVTVSS
notes: Alpaca VHH, 122 aa; also called BC2-Nb; BC2 nanotrap (BC2-Nb immobilized on agarose/Sepharose beads); not shown: C-terminal 6xHis-tag added by the pHEN6 vector
B1: no binding (tested: 1 µg/ml BC2-Nb) (AAVSHWQQ); binds (MEPDRKAAVSHWQ); binds (DRKAAVSHWQQ). B1: binds (EPDRKAAVSHWQQ); binds (MEPDRKAAVSHW).

B2: BC2-Nb(R106E) (VHH)
VHH: QVQLVESGGGLVQPGGSLTLSCTASGFTLDHYDIGWFRQAPGKEREGVSCINNSDDDTYYADSVKGRFTIFMDNAKDTVYLQMNSLKPEDTAIYYCAEARGCKRGEYEYDFWGQGTQVTVSS
notes: Headlock mutant; immobilized on beads in the library pulldown
B2 showed a ratio [1] of 0.1, a ratio [2] of 0.1 and a ratio [3] of 0.5. The ratio (BC2T S8G library peptide) was 0.8, the ratio [4] was 0.2 and the ratio (BC2T S8E library peptide) was 0.9. For the same binder, the ratio [5] was 0.4, the ratio [6] was 0.2 and the ratio [7] was 1.3. The ratio [8] was 0.4, the ratio [9] was 1.2 and the ratio (BC2T H9M library peptide) was 0.2. It also gave a ratio (BC2T S8N library peptide) of 0.5 and a ratio [10] of 0.1.
